IntAct's records for PubMed 29892012

B1: Protein VAC14 homolog (Homo sapiens), Q08AM6 (parent)
chain: MNPEKDFAPLTPNIVRALNDKLYEKRKVAALEIEKLVREFVAQNNTVQIKHVIQTLSQEFALSQHPHSRKGGLIGLAACSIALGKDSGLYLKELIEPVLTCFNDADSRLRYYACEALYNIVKVARGAVLPHFNVLFDGLSKLAADPDPNVKSGSELLDRLLKDIVTESNKFDLVSFIPLLRERIYSNNQYARQFIISWILVLESVPDINLLDYLPEILDGLFQILGDNGKEIRKMCEVVLGEFLKEIKKNPSSVKFAEMANILVIHCQTTDDLIQLTAMCWMREFIQLAGRVMLPYSSGILTAVLPCLAYDDRKKSIKEVANVCNQSLMKLVTPEDDELDELRPGQRQAEPTPDDALPKQEGTASGGPDGSCDSSFSSGISVFTAASTERAPVTLHLDGIVQVLNCHLSDTAIGMMTRIAVLKWLYHLYIKTPRKMFRHTDSLFPILLQTLSDESDEVILKDLEVLAEIASSPAGQTDDPGPLDGPDLQASHSELQVPTPGRAGLLNTSGTKGLECSPSTPTMNSYFYKFMINLLKRFSSERKLLEVRGPFIIRQLCLLLNAENIFHSMADILLREEDLKFASTMVHALNTILLTSTELFQLRNQLKDLKTLESQNLFCCLYRSWCHNPVTTVSLCFLTQNYRHAYDLIQKFGDLEVTVDFLAEVDKLVQLIECPIFTYLRLQLLDVKNNPYLIKALYGLLMLLPQSSAFQLLSHRLQCVPNPELLQTEDSLKAAPKSQKADSPSIDYAELLQHFEKVQNKHLEVRHQRSGRGDHLDRRVVL
partner: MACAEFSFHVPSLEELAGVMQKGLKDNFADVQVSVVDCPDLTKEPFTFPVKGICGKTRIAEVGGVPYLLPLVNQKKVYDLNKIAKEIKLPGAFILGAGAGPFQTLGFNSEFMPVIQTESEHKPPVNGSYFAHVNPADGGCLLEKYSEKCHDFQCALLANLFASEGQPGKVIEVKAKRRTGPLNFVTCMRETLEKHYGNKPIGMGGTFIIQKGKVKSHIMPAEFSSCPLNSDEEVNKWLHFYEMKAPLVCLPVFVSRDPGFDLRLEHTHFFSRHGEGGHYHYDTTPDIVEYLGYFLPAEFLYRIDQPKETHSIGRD
B2: Protein VAC14 homolog (Homo sapiens), Q08AM6 (parent)
chain: B1 chain
partner: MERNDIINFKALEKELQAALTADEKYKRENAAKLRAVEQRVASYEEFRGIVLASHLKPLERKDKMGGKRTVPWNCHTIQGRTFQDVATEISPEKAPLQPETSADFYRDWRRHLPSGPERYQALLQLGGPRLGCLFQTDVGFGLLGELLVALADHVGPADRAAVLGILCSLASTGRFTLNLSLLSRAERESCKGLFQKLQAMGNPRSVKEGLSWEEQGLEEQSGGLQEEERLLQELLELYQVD
B3: Genetic suppressor element 1 (Homo sapiens), Q14687 (parent)
chain: MKGMSHEPKSPSLGMLSTATRTTATVNPLTPSPLNGALVPSGSPATSSALSAQAAPSSSFAAALRKLAKQAEEPRGSSLSSESSPVSSPATNHSSPASTPKRVPMGPIIVPPGGHSVPSTPPVVTIAPTKTVNGVWRSESRQDAGSRSSSGGRERLIVEPPLPQEKAGGPAIPSHLLSTPYPFGLSPSSVVQDSRFPPLNLQRPVHHVVPPSTVTEDYLRSFRPYHTTDDLRMSSLPPLGLDPATAAAYYHPSYLAPHPFPHPAFRMDDSYCLSALRSPFYPIPTPGSLPPLHPSAMHLHLSGVRYPPELSHSSLAALHSERMSGLSAERLQMDEELRREREREREREREREADREREKEREREREKEREQEKEREREKERERELERQREQRAREKELLAAKALEPSFLPVAELHGLRGHATEERGKPSEQLTPTRAEKLKDAGLQAPKPVQHPLHPVPTPHHTVPSLISNHGIFSLPSSSAATALLIQRTNEEEKWLARQRRLRQEKEDRQSQVSEFRQQVLEQHLDMGRPPVPAEAEHRPESTTRPGPNRHEPGGRDPPQHFGGPPPLISPKPQLHAAPTALWNPVSLMDNTLETRRAESHSLHSHPAAFEPSRQAAVPLVKVERVFCPEKAEEGPRKREPAPLDKYQPPPPPPREGGSLEHQPFLPGPGPFLAELEKSTQTILGQQRASLPQAATFGELSGPLKPGSPYRPPVPRAPDPAYIYDEFLQQRRRLVSKLDLEERRRREAQEKGYYYDLDDSYDESDEEEVRAHLRCVAEQPPLKLDTSSEKLEFLQLFGLTTQQQKEELVAQKRRKRRRMLRERSPSPPTIQSKRQTPSPRLALSTRYSPDEMNNSPNFEEKKKFLTIFNLTHISAEKRKDKERLVEMLRAMKQKALSAAVADSLTNSPRDSPAVSLSEPATQQASLDVEKPVGVAASLSDIPKAAEPGKLEQVRPQELSRVQELAPASGEKARLSEAPGGKKSLSMLHYIRGAAPKDIPVPLSHSTNGKSKPWEPFVAEEFAHQFHESVLQSTQKALQKHKGSVAVLSAEQNHKVDTSVHYNIPELQSSSRAPPPQHNGQQEPPTARKGPPTQELDRDSEEEEEEDDEDGEDEEEVPKRKWQGIEAVFEAYQEHIEEQNLERQVLQTQCRRLEARHYSLSLTAEQLSHSVAELRSQKQKMVSERERLQAELDHLRKCLALPAMHWPRGYLKGYPR
partner: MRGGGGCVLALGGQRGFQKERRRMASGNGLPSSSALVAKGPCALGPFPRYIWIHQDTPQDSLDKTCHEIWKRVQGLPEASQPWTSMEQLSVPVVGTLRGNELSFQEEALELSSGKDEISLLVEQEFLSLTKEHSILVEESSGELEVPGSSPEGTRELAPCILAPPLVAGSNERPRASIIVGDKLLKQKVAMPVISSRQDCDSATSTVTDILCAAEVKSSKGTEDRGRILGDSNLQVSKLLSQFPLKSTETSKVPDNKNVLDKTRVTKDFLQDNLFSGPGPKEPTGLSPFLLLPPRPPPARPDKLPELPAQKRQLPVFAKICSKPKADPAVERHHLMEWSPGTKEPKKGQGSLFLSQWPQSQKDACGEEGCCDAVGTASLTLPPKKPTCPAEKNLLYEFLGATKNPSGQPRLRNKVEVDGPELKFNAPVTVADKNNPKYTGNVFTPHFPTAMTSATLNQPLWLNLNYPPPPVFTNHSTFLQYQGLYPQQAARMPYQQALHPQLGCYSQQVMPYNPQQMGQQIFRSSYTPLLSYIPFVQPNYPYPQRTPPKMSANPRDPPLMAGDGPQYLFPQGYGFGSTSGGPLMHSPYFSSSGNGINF
B4: Genetic suppressor element 1 (Homo sapiens), Q14687 (parent)
chain: B3 chain
B5: Genetic suppressor element 1 (Homo sapiens), Q14687 (parent)
chain: B3 chain
partner: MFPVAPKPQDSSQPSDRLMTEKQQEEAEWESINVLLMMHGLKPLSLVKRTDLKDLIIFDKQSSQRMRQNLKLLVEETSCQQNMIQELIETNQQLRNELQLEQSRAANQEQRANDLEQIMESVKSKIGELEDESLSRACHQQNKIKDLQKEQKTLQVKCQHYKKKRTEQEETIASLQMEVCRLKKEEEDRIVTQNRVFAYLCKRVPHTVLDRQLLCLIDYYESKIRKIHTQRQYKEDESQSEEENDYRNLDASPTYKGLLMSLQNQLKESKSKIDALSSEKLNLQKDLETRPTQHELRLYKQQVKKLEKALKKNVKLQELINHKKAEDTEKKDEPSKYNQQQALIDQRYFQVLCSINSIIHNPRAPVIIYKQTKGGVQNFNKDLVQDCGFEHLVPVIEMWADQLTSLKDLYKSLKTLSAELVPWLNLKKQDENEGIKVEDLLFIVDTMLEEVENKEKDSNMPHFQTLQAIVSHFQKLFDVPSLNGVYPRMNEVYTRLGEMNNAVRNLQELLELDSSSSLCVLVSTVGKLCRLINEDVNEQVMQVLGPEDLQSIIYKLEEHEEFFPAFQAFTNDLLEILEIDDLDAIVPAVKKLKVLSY
B6: Genetic suppressor element 1 (Homo sapiens), Q14687 (parent)
chain: B3 chain
partner: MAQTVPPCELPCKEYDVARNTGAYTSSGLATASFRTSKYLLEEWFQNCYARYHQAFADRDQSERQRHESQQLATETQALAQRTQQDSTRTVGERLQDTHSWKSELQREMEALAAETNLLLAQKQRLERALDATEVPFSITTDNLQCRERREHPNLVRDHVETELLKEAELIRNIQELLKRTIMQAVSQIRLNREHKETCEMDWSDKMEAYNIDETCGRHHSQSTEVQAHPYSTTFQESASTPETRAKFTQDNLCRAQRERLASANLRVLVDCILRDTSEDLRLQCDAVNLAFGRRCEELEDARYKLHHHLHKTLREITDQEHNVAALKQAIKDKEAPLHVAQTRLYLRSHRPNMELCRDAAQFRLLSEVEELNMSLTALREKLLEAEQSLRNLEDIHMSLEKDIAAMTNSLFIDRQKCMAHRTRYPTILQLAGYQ

Variants of: B1
Settings: with ck054_human C11orf54, Q9H0W9

Variant | effect of a mutation on the interaction
A127S | with no effect

Variants of: B2
Settings: with daa19_human DNAAF19, Q8IW40

Variant | effect of a mutation on the interaction
A127S | with no effect

Variants of: B3
Settings: with ca094_human C1orf94, Q6P1W5

Variant | effect of a mutation on the interaction
E368K | with no effect

Variants of: B3
Settings: with ca094_human C1orf94, Q6P1W5
Remark: another data set of the same source

Variant | effect of a mutation on the interaction
R503Q | with no effect

Variants of: B4
Settings: with rbpms_human RBPMS

Variant | effect of a mutation on the interaction
E368K | with no effect

Variants of: B4
Settings: with rcor3_human RCOR3, Q9P2K3

Variant | effect of a mutation on the interaction
E368K | with no effect

Variants of: B4
Settings: with rbpms_human RBPMS
Remark: another data set of the same source

Variant | effect of a mutation on the interaction
R503Q | with no effect

Variants of: B4
Settings: with rcor3_human RCOR3, Q9P2K3
Remark: another data set of the same source

Variant | effect of a mutation on the interaction
R503Q | with no effect

Variants of: B5
Settings: with cep70_human CEP70, Q8NHQ1

Variant | effect of a mutation on the interaction
E368K | with no effect

Variants of: B5
Settings: with cep70_human CEP70, Q8NHQ1
Remark: another data set of the same source

Variant | effect of a mutation on the interaction
R503Q | with no effect

Variants of: B6
Settings: with tekt4_human TEKT4, Q8WW24

Variant | effect of a mutation on the interaction
E368K | with no effect

Variants of: B6
Settings: with tekt4_human TEKT4, Q8WW24
Remark: another data set of the same source

Variant | effect of a mutation on the interaction
R503Q | with no effect
